Assay results reported in EP4786492A1 (Simcere Zaiming Pharmaceutical Co., Ltd., dated 2026).
Positions count from the first letter of the chain named.

Key:
human DLL3-his protein = target: T1, human DLL3-his protein (human, UniProt Q9NYJ7 27-492); experiment: ELISA
T1 construct: also called human DLL3 protein; DLL3 antigen protein; not shown: His tag
T1 sequence: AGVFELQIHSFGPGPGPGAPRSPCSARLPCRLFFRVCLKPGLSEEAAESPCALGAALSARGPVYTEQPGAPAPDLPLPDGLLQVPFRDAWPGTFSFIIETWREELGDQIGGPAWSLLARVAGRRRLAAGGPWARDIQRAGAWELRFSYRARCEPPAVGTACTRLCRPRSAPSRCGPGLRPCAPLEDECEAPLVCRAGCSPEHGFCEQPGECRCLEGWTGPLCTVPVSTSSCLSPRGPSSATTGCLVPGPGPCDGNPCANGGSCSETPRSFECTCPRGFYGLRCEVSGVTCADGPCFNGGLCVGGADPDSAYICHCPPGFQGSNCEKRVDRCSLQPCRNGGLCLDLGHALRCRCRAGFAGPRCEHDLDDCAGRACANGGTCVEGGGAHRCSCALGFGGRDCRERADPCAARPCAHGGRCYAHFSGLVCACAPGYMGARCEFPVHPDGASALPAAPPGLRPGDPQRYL

[1] = target: T2, mouse DLL3 on CHO K1-mDLL3 cells (mouse, UniProt O88516 33-490); experiment: FACS, CHO K1-mDLL3 cells
T2 construct: also called mouse DLL3 recombinant cell line
T2 sequence: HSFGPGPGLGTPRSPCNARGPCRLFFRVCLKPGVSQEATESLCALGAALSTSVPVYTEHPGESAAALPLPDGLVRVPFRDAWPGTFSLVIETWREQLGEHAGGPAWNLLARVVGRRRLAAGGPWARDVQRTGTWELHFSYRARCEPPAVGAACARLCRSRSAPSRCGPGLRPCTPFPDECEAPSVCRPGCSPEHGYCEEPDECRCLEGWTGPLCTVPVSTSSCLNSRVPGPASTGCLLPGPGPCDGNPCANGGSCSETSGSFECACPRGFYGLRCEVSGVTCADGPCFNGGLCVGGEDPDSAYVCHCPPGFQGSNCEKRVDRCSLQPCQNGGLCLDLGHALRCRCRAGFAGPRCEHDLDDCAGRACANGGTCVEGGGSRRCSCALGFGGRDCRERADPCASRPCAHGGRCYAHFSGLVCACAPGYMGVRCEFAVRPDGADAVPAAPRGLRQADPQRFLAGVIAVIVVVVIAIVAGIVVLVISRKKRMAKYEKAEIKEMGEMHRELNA

[2] = target: T3, human DLL3 on CHO-K1 hDLL3 cells (human, UniProt Q9NYJ7 27-492); experiment: FACS, CHO-K1 hDLL3 cells
T3 construct: also called human DLL3 recombinant cell line
T3 sequence: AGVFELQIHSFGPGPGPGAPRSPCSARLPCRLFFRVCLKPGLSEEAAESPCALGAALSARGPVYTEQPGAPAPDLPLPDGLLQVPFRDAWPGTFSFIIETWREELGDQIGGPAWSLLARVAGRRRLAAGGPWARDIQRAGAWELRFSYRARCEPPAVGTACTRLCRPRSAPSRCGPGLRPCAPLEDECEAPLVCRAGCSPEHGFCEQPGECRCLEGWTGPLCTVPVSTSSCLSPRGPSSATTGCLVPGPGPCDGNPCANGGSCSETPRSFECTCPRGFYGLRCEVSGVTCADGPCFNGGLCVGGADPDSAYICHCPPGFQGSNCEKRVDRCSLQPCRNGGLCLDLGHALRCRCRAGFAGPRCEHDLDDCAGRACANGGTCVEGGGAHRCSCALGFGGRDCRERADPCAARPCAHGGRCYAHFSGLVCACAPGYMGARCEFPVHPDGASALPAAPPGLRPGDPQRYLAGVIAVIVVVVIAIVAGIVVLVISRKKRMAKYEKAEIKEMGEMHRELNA

[3] = target: T4, monkey DLL3 on CHO K1-cyno DLL3 cells (cynomolgus monkey); experiment: FACS, CHO K1-cyno DLL3 cells
T4 construct: also called monkey DLL3 recombinant cell line
T4 chain: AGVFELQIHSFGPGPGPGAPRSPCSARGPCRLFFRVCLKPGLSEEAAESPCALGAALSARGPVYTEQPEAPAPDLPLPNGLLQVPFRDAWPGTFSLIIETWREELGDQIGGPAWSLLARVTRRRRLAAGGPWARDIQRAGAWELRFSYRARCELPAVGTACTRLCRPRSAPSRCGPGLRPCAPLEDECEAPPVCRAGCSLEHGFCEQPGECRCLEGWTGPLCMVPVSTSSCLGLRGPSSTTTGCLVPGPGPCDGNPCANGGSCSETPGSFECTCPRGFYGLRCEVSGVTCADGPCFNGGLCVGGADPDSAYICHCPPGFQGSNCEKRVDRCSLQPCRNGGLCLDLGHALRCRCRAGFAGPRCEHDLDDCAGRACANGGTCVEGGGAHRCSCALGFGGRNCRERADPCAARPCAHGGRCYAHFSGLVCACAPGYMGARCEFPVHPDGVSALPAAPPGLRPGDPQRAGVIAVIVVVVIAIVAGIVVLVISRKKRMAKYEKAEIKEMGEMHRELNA

[4] = target: T5, human DLL3 endogenously expressed on SHP77 and NCI-H82 cells (human, UniProt Q9NYJ7 27-618); experiment: FACS, SHP77 and NCI-H82 cells
T5 construct: whole, on cells; cells endogenously expressing DLL3; also called SHP77 cells; SHP-77 cells
T5 sequence (looked up): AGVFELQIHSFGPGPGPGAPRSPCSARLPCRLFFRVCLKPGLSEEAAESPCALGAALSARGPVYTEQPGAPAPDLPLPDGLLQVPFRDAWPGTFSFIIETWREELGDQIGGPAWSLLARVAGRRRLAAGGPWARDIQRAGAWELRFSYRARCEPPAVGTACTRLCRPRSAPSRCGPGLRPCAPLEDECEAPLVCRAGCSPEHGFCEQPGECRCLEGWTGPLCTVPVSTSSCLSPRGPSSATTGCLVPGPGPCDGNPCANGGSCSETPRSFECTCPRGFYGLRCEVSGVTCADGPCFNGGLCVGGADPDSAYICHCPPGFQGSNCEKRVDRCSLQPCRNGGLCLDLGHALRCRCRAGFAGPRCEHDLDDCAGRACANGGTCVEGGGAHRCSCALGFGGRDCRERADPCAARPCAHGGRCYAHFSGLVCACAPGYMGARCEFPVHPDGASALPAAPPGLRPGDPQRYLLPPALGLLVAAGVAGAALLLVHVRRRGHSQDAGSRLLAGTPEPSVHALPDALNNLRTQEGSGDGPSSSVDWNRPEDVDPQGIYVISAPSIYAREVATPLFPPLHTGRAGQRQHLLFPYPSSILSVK

Measured: binding result

B1: Hab006VL1VH4-hFc (Fc fusion)
scFv (part 1 of 2): DIQMTQSPSSLSASVGDRVTITCRATKSISKYLAWYQQKPGKAPKLLIFSGSTLQSGVPSRFSGSGSGTDFTLTISSLQPEDFATYYCQQHHEYPYTFGGGTKVEIK
scFv (part 2 of 2): EVQLVQSGAEVKKPGASVKVSCKASGYTFTSYWMHWVRQAPGQRLEWMGVIDPSDSLANYNQEFKGRVTLTVDTSSSTAYMELSSLRSEDTAVYYCARDSTVVAPMDYWGQGTTVTVSS
notes: humanized mab006, VL-linker-VH-human IgG1 Fc; also called Hab006VL1VL4-hFc; not shown: linker; human IgG1 Fc fragment
binds: all assays above

B2: Hab006VL4VH1-hFc (Fc fusion)
scFv (part 1 of 2): DIVMTQSPDSLAVSLGERATINCRATKSISKYLAWYQQKPGQTNKLLIFSGSTLQSGVPDRFSGSGSGTDFTLTISSLQAEDVAVYYCQQHHEYPYTFGGGTKVEIK
scFv (part 2 of 2): B1 scFv (part 2 of 2) with L70I, S76A
notes: humanized mab006, VL-linker-VH-human IgG1 Fc; also called Hab006VL4VL1-hFc; not shown: linker; human IgG1 Fc fragment
binds: all assays above

B3: Hab006VL4VH2-hFc (Fc fusion)
scFv (part 1 of 2): B2 scFv (part 1 of 2)
scFv (part 2 of 2): B1 scFv (part 2 of 2) with S76A
notes: humanized mab006, VL-linker-VH-human IgG1 Fc; also called Hab006VL4VL2-hFc; not shown: linker; human IgG1 Fc fragment
binds: all assays above

B4: mab015 scFv-hFc (Fc fusion)
scFv (part 1 of 2): NIVMTQSPKSMSMSVGERVTLSCKASENVGTYVSWFQQKPEQSPKLLIYGASNRYTGVPDRFTGSGSATDFTLTISSVQAEDLADYHCGQFYSFPCTFGGGTKLEIK
scFv (part 2 of 2): EVKLEESGGGLVQPGGSMKLSCVASGITFSNFWMNWVRQSPEKGLEWVAQIRLKSDDYATHYAESVKGRFTISRDDSKGSVYLQMNNLRTEDTGIHYCTTGYYFDYWGQGTTLTVSS
notes: human-murine chimeric scFv-hFc, VL-linker-VH-human IgG1 Fc; not shown: linker; Fc fragment of human IgG1
binds: human DLL3-his protein | [3]

B5: mab009 scFv-hFc (Fc fusion)
scFv (part 1 of 2): DIVMTQSPATLSVTPGDRVSLSCRASQTISDYLHWYQQRSHESPRLLIKYASQSISGIPSRFSGSGSGSDFTLSINSVEPEDVGVYYCQNGHSFPLTFGAGTKLELK
scFv (part 2 of 2): EVQLQQSGTVLARPGASVKMSCKTSGYTFTSYWMHWVKQSPGQGLEWIGTIYPGNSDTRYNQKFKDKAYVTAVTSASTAYMELSSLTNEESAVYYCTRSYDYGDLDYWGQGTTLTVSS
notes: as for B4
binds: human DLL3-his protein

B6: Hab009VL1aVH1-hFc (Fc fusion)
scFv (part 1 of 2): DIVMTQSPLSLPVTPGEPASISCRASQTISDYLHWYLQKPGQSPQLLIKYASQSISGVPDRFSGSGSGSDFTLKISRVEAEDVGVYYCQQGHSFPLTFGQGTKLEIK
scFv (part 2 of 2): EVQLVQSGAEVKKPGASVKVSCKASGYTFTSYWMHWVRQAPGQRLEWMGTIYPGNSDTRYNQKFKDRVTITADTSASTAYMELSSLRSEDTAVYYCTRSYDYGDLDYWGQGTTVTVSS
notes: humanized mab009, VL-linker-VH-human IgG1 Fc; not shown: linker; human IgG1 Fc fragment
binds: all assays above

B7: Hab009VL2aVH1-hFc (Fc fusion)
scFv (part 1 of 2): B6 scFv (part 1 of 2) with Q45R, S69T
scFv (part 2 of 2): B6 scFv (part 2 of 2)
notes: as for B6
binds: all assays above

B8: Hab009VL3aVH1-hFc (Fc fusion)
scFv (part 1 of 2): B6 scFv (part 1 of 2) with P40S, G41H, S69T
scFv (part 2 of 2): B6 scFv (part 2 of 2)
notes: as for B6
binds: all assays above

B9: Hab013VL2VH2a-hFc (Fc fusion)
scFv (part 1 of 2): EIVLTQSPATLSLSPGERATLSCRASKSVSTSGFSYMHWYQQKPGQPPRLLIYLASNLESGIPARFSGSGSGTDFTLTISSLEPEDFAVYYCQHSRELPFTFGQGTKLEIK
scFv (part 2 of 2): EVQLVQSGAEVKKPGSSVKVSCKASGYAFSNYWINWVRQAPGQGLEWMGQINPGDGDTIYNSKFKGRVTITADKSTSTAYMELSSLRSEDTAVYYCEREGRNYGDFAYWGQGTTVTVSS
notes: humanized mab013, VL-linker-VH-human IgG1 Fc; not shown: linker; human IgG1 Fc fragment
not listed: [3]
binds: all other assays above

B10: mab010 scFv-hFc (Fc fusion)
scFv (part 1 of 2): DIQMTQSPASLSVSVGETVTITCRASENINSNLAWYQQKQGKSPQLLVYAATNLADGVPSRFSGSGSGTQFSLKISGLQSEDFGSYYCQHFWGLPWTFGGGTKLEIR
scFv (part 2 of 2): QVQLQQSGAELARPGASMKLSCKASGYTFTSYGISWVKQITGQGLEWIGEIFPRSGNTYDNENFRGKATLTADKSSSTAYLEVRSLTSEDSAVYFCARTTVFAPYYFDYWGQGTTLTVSS
notes: as for B4
binds: human DLL3-his protein | [3]
